Assay results from paper PMC3483155, “Inhibition of Pre-mRNA Splicing by a Synthetic Blom7α-Interacting Small RNA”.

Experiments:
[1] = molecular target: Blom7-KH (Homo sapiens, UniProt Q7Z7F0 1-317); assay: EMSA; 1 mM Mg2+; 20 nM RNA, 0-50 nM protein; EMSA: PBS pH 7.5, 1 mM MgCl2, 1 mM DTT, 5% glycerol, 20 min at room temperature, gel at 4°C; SPR: 1x PBS, 1 mM Mg acetate, pH 7.0 (or HEPES + 3 mM Mg acetate); settings: protein: recombinant; tags: His6 (C-terminal as named, pET30A); label: 3' biotin; single strand
[2] = molecular target: Blom7α wt (Homo sapiens, UniProt Q7Z7F0 1-614); assay: as above

Question: Does UGCCCCAAUCCUACACGACCCAAGGCCCCC (ssRNA) [AK48] bind [1]?
Answer: binds

Question: Does UGCCCCAAUCCUACACGACCCAAGGCCCCC (ssRNA) [AK48] bind [2]?
Answer: binds
